Target: CoV2_5P prefusion-stabilized spike protein (SARS-CoV-2) (UniProt P0DTC2)
Experiment: ELISA

## CR3022 (antibody)
  EC50 (read off the curve): 0.02 µg/mL
